This is an account of results in US20250297232A1, “BACTERIAL MYELOPEROXIDASE-CATALASE AND APPLICATIONS THEREOF” (priority 2022, published 2025).

What all share (type): biochemical
The nature of series [1]: Peroxidase activity with ABTS. To be noted: ABTS range; 0.5 nM wt RbMPO, 79 μM H2O2, pH5.5, 37° C. The procedure:
The plate reader was configured to run a 10 min kinetics at 430 nm with the following ABTS concentration range: 0, 0.1, 0.2, 0.5, 1, 2, 5, 10, 15, 20, 30 and 40 mM.

Series [2] is described as follows: Pre-steady state: return of wt RbMPO to its native state, Br^− range. The note with it: H2O2: 20 μM. On the procedure:
Kinetic parameters under pre-steady-state condition were performed with a Biologic SFM400 stopped-flow at 412 nm, 37° C. and with 50 mM sodium phosphate buffer at pH7.5. […] An exponential linear fit was applied to each kinetic using the following formula: […]
The return of the enzyme to its native state was studied by the impact of increasing concentrations of (pseudo)-halides substrates on compound I (FIG. 9B). […] It is the time difference (s) between the two characteristic steps that allowed the calculation of the values of the Vreturn(μM^−1.s^−1) values: […]

The nature of series [3]: Catalase activity (absorbance decay at 240 nm, stopped-flow). The note with it: for kss: catalase, 300 nM enzyme, pH 7.5, 500 μM H2O2; for catalase activity, in words: 2 μM wt RbMPO, 37° C.
Experimental: Catalase activity was measured using the stopped-flow set-up, which was configured to measure absorbance decay at 240 nm and at 37° C.

B1: wt RbMPO: novel bacterial heme peroxidase (myeloperoxidase-catalase) of about 78 KDa from Rhodopirellula baltica, SEQ ID NO: 1, produced recombinantly in E. coli (protein, listed as Rhodopirellula baltica)
chain: MLFWSKRTRKHPGRKRRRLRSEQLESRQLLAADFGGYRHNIYDAEDVNDDGRVSAIDALLVINAMTSETSRDENVFTDVNGDGRRSALDALRVINRIERGDVFPIDTSGDEDLNTLLPEMPSEVRSIDGSGNNPNDHLWGSVGQRLIRMAPAAYGDGISTLAGANRPSAREVSNVLSAMNTSQVLNDRGLSAFVYVWGQFIDHDLGLTESDEHGEAIDISVPEGDLWFDPMGSGEAVIPMTRTPIADGTGTSVGNPAQQFNQITAFIDGSMVYGSDAATAERLRTFAGGRLAISDNGLLPMDESGMVIAGDVRASENVGLTAIQTLFVREHNRLADEIFAADPEATDEEIYQRARLVVASLIQSITYNEFLPALLGQRAMDSYRGYDASVNPGIANEFSTAAFRLGHSTLRDEVGFMSNDGRESKDEMELKDAFFHASMLEETGIDSLLKFDASVQAQEIDLAVVDSLRNFLFGPPGAGGLDLVAMNIQRGRDHGLSDYNTTRQAYGLDRVETFDQITGDVELQQKLASLYGTVDNIDLWVGLMAEDHQHDASVGELTGLIIADQFQRTRDGDRFFYKNVLTDSEVESIERSTLADLIERNTSVDGLQENVFFMQVELRGRVILASSIPPNTMPSEVREEEIRGVSGMAIELIDASGKLVDSTVSDQHGNYRFRALSETGDYQVRLSESGEAMDVLVAHGAERIRGLDFIVLA
B1: in series [1], the k2 stood at 10620 M⁻¹ s⁻¹. This molecule also gave a kreturn/K1/2 in series [2] of 607.77 ± 161.51 M⁻¹ s⁻¹. For the same molecule, the catalase activity kept entry is on record as “more than 80%” in series [3] (about 50° C. to about 60° C.); “more than 90%” in series [3] (between 20° C. and 40° C.). In addition, the kss stood at 2.04 ± 0.01 s⁻¹ in series [3] (10° C.); 2.55 ± 0.02 s⁻¹ in series [3] (20° C.); 2.75 ± 0.01 s⁻¹ in series [3] (30° C.); 2.78 ± 0.01 s⁻¹ in series [3] (37°); 2.64 ± 0.01 s⁻¹ in series [3] (40° C.); 2.43 ± 0.01 s⁻¹ in series [3] (50° C.). Moreover, the kss in series [3] (60° C.) turned out to be 2.39 ± 0.01 s⁻¹. Moreover, the “catalase activity, in words” value is given as “no detectable catalase activity” in series [3] (pH4, 5, 8 and 9); “negligible” in series [3] (pH6 and pH10).
